Changes are numbered by the printed parent chain.
B1: P043.A.00018.C02 (protein sample ID 450) (antibody, V domains shown)
VH: QSVEESGGRLVTPGTPLTLTCTVSGFSLSSYAMSWVRQAPGKGLEWIGIINSGRSTYYASWAKGRFTISKTSTTVDLKITSPTTEDTATYFCARDATSIGYYRYYGMDPWGPGTLVTVSS
VL: AIQMTQSPSSLAASVGDTVTITCKASEDIGYGLNWYQQKLGIAPKLLIYGANTLESGVPSRFSGSGSETDYTLTISSVQAEDAGIYYCQQGYSTPLTFGAGTKVEIK
B2: P043.A.00024.C11 (protein sample ID 451) (antibody, V domains shown)
VH: QSVEESGGRLVTPGTPLTLTCTVSGFSLSSYAMSWVRQAPGKGLEWIGIISSSGTTYYASWAKGPFTISKTSTTVDLKITSPTTEDTATYFCARGGAGYGYAHYYGMDPWGPGTLVTVSS
VL: B1 VL
B3: 460 (bispecific antibody)
heavy chain: QSVEESGGRLVTPGTPLTLTCTVSGFSLSSYAMNWVRQAPGKGLEWIGIISSSGSTYYASWAKGRFTISKTSTTVDLKITSPTTEDTATYFCARVGAGYAGYGYDNYYGMDPWGPGTLVTVSSASTKGPSVFPLAPSSKSTSGGTAALGCLVKDYFPEPVTVSWNSGALTSGVHTFPAVLQSSGLYSLSSVVTVPSSSLGTQTYICNVNHKPSNTKVDKRVEPKSCDKTHTCPPCPAPEAAGGPSVFLFPPKPKDTLMISRTPEVTCVVVDVSHEDPEVKFNWYVDGVEVHNAKTKPREEQYNSTYRVVSVLTVLHQDWLNGKEYKCKVSNKALPAPIEKTISKAKGQPREPQVYTLPPSREEMTKNQVSLTCLVKGFYPSDIAVEWESNGQPENNYKTTPPVLDSDGSFFLYSKLTVDKSRWQQGNVFSCSVLHEALHSHYTQKSLSLSPGK
light chain fused to scFv: AIQMTQSPSSLAASVGDTVTITCKASEDIGYGLNWYQQKLGIAPKLLIYGANTLESGVPSRFSGSGSETDYTLTISSVQAEDAGIYYCQQGYSTPLTFGAGTKVEIKRTVAAPSVFIFPPSDEQLKSGTASVVCLLNNFYPREAKVQWKVDNALQSGNSQESVTEQDSKDSTYSLSSTLTLSKADYEKHKVYACEVTHQGLSSPVTKSFNRGECDVPGGSGGGGSGGGGSGGGGSQMQLVQSGTEVKKPGESLKISCKGSGYGFITYWIGWVRQMPGKCLEWMGIIYPGDSETRYSPSFQGQVTISADKSINTAYLQWSSLKASDTAIYYCAGGSGISTPMDVWGQGTTVTVGGGGSGGGGSGGGGSGGGGSDIQLTQSPDSLAVSLGERATINCKSSQSVLYSSINKNYLAWYQQKPGQPPKLLIYWASTRESGVPDRFSGSGSGTDFTLTISSLQAEDVAVYYCQQYYSTPYTFGCGTKVEIK
notes: also called LC of P043.A.00020.D06 with a C-terminal fusion of a scFv of anti-S1 antibody; HC of P043.A.00020.D06 as IgG1-LALA-LS
B4: 454 (bispecific antibody)
heavy chain: QSVEESGGRLVTPGTPLTLTCTVSGFSLSKYAMSWVRQAPGKGLEWIGIISSGGSTYYASWAKGRFTISKTSSTTVDLKITSPTTEDTATYFCARAGYPGYSPHYFNIWGPGTLVTVSLASTKGPSVFPLAPSSKSTSGGTAALGCLVKDYFPEPVTVSWNSGALTSGVHTFPAVLQSSGLYSLSSVVTVPSSSLGTQTYICNVNHKPSNTKVDKRVEPKSCDKTHTCPPCPAPEAAGGPSVFLFPPKPKDTLMISRTPEVTCVVVDVSHEDPEVKFNWYVDGVEVHNAKTKPREEQYNSTYRVVSVLTVLHQDWLNGKEYKCKVSNKALPAPIEKTISKAKGQPREPQVYTLPPSREEMTKNQVSLTCLVKGFYPSDIAVEWESNGQPENNYKTTPPVLDSDGSFFLYSKLTVDKSRWQQGNVFSCSVLHEALHSHYTQKSLSLSPGK
light chain fused to scFv: B3 light chain fused to scFv with G32E, S63T, L96P
notes: also called LC of P043.A.00023.A08 with a C-terminal fusion of a scFv of anti-S1 antibody; HC of P043.A.00023.A08 as IgG1-LALA-LS
B5: 455 (bispecific antibody)
heavy chain: QSVEESGGRLVTPGTPLTLTCTVSGFSLSSYAMSWVRQAPGKGLEWIGIISSSGSTYYASWAKGRFTISKTSTTVDLKITSPTTEDTATYFCARAMYPGYSTGVYNIWGPGTLVTVSLASTKGPSVFPLAPSSKSTSGGTAALGCLVKDYFPEPVTVSWNSGALTSGVHTFPAVLQSSGLYSLSSVVTVPSSSLGTQTYICNVNHKPSNTKVDKRVEPKSCDKTHTCPPCPAPEAAGGPSVFLFPPKPKDTLMISRTPEVTCVVVDVSHEDPEVKFNWYVDGVEVHNAKTKPREEQYNSTYRVVSVLTVLHQDWLNGKEYKCKVSNKALPAPIEKTISKAKGQPREPQVYTLPPSREEMTKNQVSLTCLVKGFYPSDIAVEWESNGQPENNYKTTPPVLDSDGSFFLYSKLTVDKSRWQQGNVFSCSVLHEALHSHYTQKSLSLSPGK
light chain fused to scFv: B3 light chain fused to scFv with G32E, S93N, L96N
notes: also called LC of P043.A.00017.E07 with a C-terminal fusion of a scFv of anti-S1 antibody; HC of P043.A.00017.E07 as IgG1-LALA-LS
B6: 461 (bispecific antibody)
heavy chain: QSVEESGGRLVTPGTPLTLTCTVSGFSLSSYAMSWVRQAPGKGLEWIGIINSGRSTYYASWAKGRFTISKTSTTVDLKITSPTTEDTATYFCARDATSIGYYRYYGMDPWGPGTLVTVSSASTKGPSVFPLAPSSKSTSGGTAALGCLVKDYFPEPVTVSWNSGALTSGVHTFPAVLQSSGLYSLSSVVTVPSSSLGTQTYICNVNHKPSNTKVDKRVEPKSCDKTHTCPPCPAPEAAGGPSVFLFPPKPKDTLMISRTPEVTCVVVDVSHEDPEVKFNWYVDGVEVHNAKTKPREEQYNSTYRVVSVLTVLHQDWLNGKEYKCKVSNKALPAPIEKTISKAKGQPREPQVYTLPPSREEMTKNQVSLTCLVKGFYPSDIAVEWESNGQPENNYKTTPPVLDSDGSFFLYSKLTVDKSRWQQGNVFSCSVLHEALHSHYTQKSLSLSPGK
light chain fused to scFv: B3 light chain fused to scFv
notes: also called LC of P043.A.00018.C02 with a C-terminal fusion of a scFv of anti-S1 antibody; HC of P043.A.00018.C02 as IgG1-LALA-LS
B7: 462 (bispecific antibody)
heavy chain: QSVEESGGRLVTPGTPLTLTCTVSGFSLSSYAMSWVRQAPGKGLEWIGIISSSGTTYYASWAKGPFTISKTSTTVDLKITSPTTEDTATYFCARGGAGYGYAHYYGMDPWGPGTLVTVSSASTKGPSVFPLAPSSKSTSGGTAALGCLVKDYFPEPVTVSWNSGALTSGVHTFPAVLQSSGLYSLSSVVTVPSSSLGTQTYICNVNHKPSNTKVDKRVEPKSCDKTHTCPPCPAPEAAGGPSVFLFPPKPKDTLMISRTPEVTCVVVDVSHEDPEVKFNWYVDGVEVHNAKTKPREEQYNSTYRVVSVLTVLHQDWLNGKEYKCKVSNKALPAPIEKTISKAKGQPREPQVYTLPPSREEMTKNQVSLTCLVKGFYPSDIAVEWESNGQPENNYKTTPPVLDSDGSFFLYSKLTVDKSRWQQGNVFSCSVLHEALHSHYTQKSLSLSPGK
light chain fused to scFv: B3 light chain fused to scFv
notes: also called LC of P043.A.00024.C11 with a C-terminal fusion of a scFv of anti-S1 antibody; HC of P043.A.00024.C11 as IgG1-LALA-LS
B8: P043.A.00023.E05 (antibody, V domains shown)
VH: B1 VH with V3L, N51S, G53S, R54G, T97S, I99R, R103Y
VL: B1 VL
notes: also called 443; protein sample ID 443
B9: P043.A.00017.E04 (antibody, V domains shown)
VH: QSVEESGGRLVTPGTPLTLTCTVSGFSLNNYAMNWVRQAPGKGLEWIGIISSSGNTYYANWAKGRFTISKTSTTVDLKITSPTTEDTATYFCARDSYPGYSPYYGMDPWGPGTLVTVSS
VL: B1 VL with G30A, A43T, D70H, S93N, L96P
B10: P043.A.00036.C07 (antibody, V domains shown)
VH: QSLEESGGDLVKPGASLTLTCTASGFSFSSSYWICWVRQAPGKGLEWIGCIYTGSGSTWYASWAKGRFTISKTSSTTVTLQMTSLTAADTATYFCARGYGSYMYDFWGPGTLVTVSS
VL: DVVMTQTPASVEAAVGGTVTIKCQASQSISTALAWYQQKPGQPPKLLIYSASTLESGVPSRFKGSGSGTEFTLAISDLESADAATYYCQGADGSSSSFGGGTEVVVK
notes: also called 448; protein sample ID 448
B11: P043.A.00032.C04 (antibody, V domains shown)
VH: QSLEESGGRLVTPGTPLTLTCTASGFSLSSYWMSWVRQAPGKGLEWIGIIYVSGSTYYASWAKGRFTISKTSTTVDLKMTSLTTEDTATYFCARVDYSTGWPLFNIWGPGTLVTVSL
VL: AQVLTQTASPVSAAVGGTVTINCQSSQSVYDNNWLGWYQQKPGQPPKLLIYGASILASGVPSRFKGSGSGTQFTLTISDLESDDAATYYCQGGCSGNTFVFGGGTEVVVK
notes: also called 452; protein sample ID 452

target: T1, Mouse-Fc-tagged SARS-CoV2 S1-RBD (Sino Biologicals) recombinant protein (SARS-CoV-2, UniProt P0DTC2 319-541); assay: ELISA on coated S1-RBD-mFc
T1 construct: domain: S1-RBD

Binder	EC50 [µg/mL]
B1	0.0077
B2	0.0064
B3	0.0153
B4	0.0178
B5	0.0116
B6	0.0128
B7	0.0119

target: T2, Human-Fc-tagged SARS-CoV2 S1 recombinant protein (Sino Biologicals) (SARS-CoV-2, UniProt P0DTC2 16-685); assay: ELISA on coated S1-hFc, 3 µg/ml; rabbit antibody in B-cell supernatant
T2 construct: domain: S1; Bought reagent

Binder	EC50 [µg/mL]
B8	0.0166
B1	0.0017
B2	0.0048
B9	0.0196
B10	0.0387
B11	0.0265

target: T1, Mouse-Fc-tagged SARS-CoV2 S1-RBD (Sino …); assay: competition ELISA: blocks S1-RBD-mFc binding to coated ACE-2 ECD

Binder	IC50 [µg/mL]
B8	0.0349
B1	0.0433
B2	0.0423
B9	0.0321
B10	0.0434
B11	0.115

target: T1, Mouse-Fc-tagged SARS-CoV2 S1-RBD (Sino …); assay: as above; remark: another data set of the same source

Binder	IC50 [µg/mL]	IC90 [ng/mL]
B1	0.0286	61200
B2	0.0391	99200
B3	0.0765	5690
B4	0.0435	453
B5	0.0481	868
B6	0.0525	913
B7	0.0464	948

target: T3, His-tagged SARS-CoV S1-RBD (Sino Biologicals) (SARS-CoV, UniProt P59594 306-527); assay: ELISA on coated His-tagged SARS-CoV S1-RBD [D00020 Figure 8A continued]
T3 construct: domain: S1-RBD; Bought reagent

Binder	binding result
B8	no binding (tested: 1000 ng/ml)
B1	no binding (tested: 1000 ng/ml)
B2	no binding (tested: 1000 ng/ml)
B9	no binding (tested: 1000 ng/ml)
B10	no binding (tested: 1000 ng/ml)
B11	no binding (tested: 1000 ng/ml)

target: T2, Human-Fc-tagged SARS-CoV2 S1 …; assay: not given

Binder	IC50 [ng/mL]
B8	8.2
B1	1
B2	3.6
B9	9.3
B10	14.1
B11	14.7

target: T1, Mouse-Fc-tagged SARS-CoV2 S1-RBD (Sino …); assay: SPR, S1-RBD-mFc captured via anti-mouse-Fc antibody, 1:1 model

Binder	Kd [nM]	koff [s⁻¹]	kon [M⁻¹ s⁻¹]
B8	0.268	0.000263	982000
B1	0.398	0.000283	714000
B2	0.77	0.000307	398000
B9	0.422	0.000327	445000

target: T1, Mouse-Fc-tagged SARS-CoV2 S1-RBD (Sino …); assay: ELISA on coated S1-RBD-mFc; remark: another data set of the same source

Binder	EC50 [ng/mL]
B8	11.2
B1	8.2
B2	7
B9	8.2
B10	7
B11	7

Reference: patent US20230287088A1 (BIONTECH, published 2023)
